Source: patent publication US5985836A, “Alpha-1 proteinase inhibitor binding peptides” (Bayer Corporation, priority 1998, dated 1999)
Ends that are not written are not given here.

Tests used:
A1PI [1] = target: T1, A1PI (Homo sapiens, UniProt P01009); assay: Purification of A1PI from Effluent II+III on peptide column, A1PI mass balance; type: binding; conditions: Table 13, 1 ml Eff. II+III, 4° C.; for Mass A1PI per Eluate Fraction, 1M NaCl / Mass A1PI per Eluate Fraction, 2% Acetic Acid / Mass A1PI per Eluate Fraction, Flowthrough: * Below detection limit; for Percent Eluted by Fraction, 1M NaCl / Percent Eluted by Fraction, 2% Acetic Acid / Percent Eluted by Fraction, Flowthrough: A1PI
T1 construct: Human plasma is currently the only approved source of therapeutic AlPI
Description: Sequences 1-11 and 15 were assayed with Effluent II+III (Eff. II+III). Eff. II+III is a process intermediate in the Cohn plasma fractionation process. The feed stream contains 20% (by volume) ethanol, 20-25 mg/ml hSA and approximately 1 mg/ml AlPI. The stream also contains other proteins including anti-thrombin III (AT3), immunoglobin G (IgG), immunoglobin A (IgA), apolipoprotein alpha-1 (Apo A-1), transferrin (Trf), haptoglobin (Hpt), and alpha-1 acid glycoprotein (AAG) at concentrations ranging from 0.1-1 mg/ml.
The columns were assayed using the same technique as the hSA+AlPI experiments, allowing for a 10 minute residence time followed by a constant flow rate of 865 μl/min with step elutions of 1M NaCl, 3M NaCl, and 2% acetic acid. All experiments were conducted at 4° C. The mass balances for the injection of 1 ml Eff. […] The AlPI was enriched from 3% of the total protein in the feed to upwards of 50% in the acid eluate.

A1PI [2] = target: T1, A1PI; assay: A1PI binding on peptide-resin column, injection of 1 mg A1PI in equilibration buffer; conditions: for % of Total A1PI Eluted by Fraction (Based on Absorbance at 280 nm), 1M NaCl / % of Total A1PI Eluted by Fraction (Based on Absorbance at 280 nm), 2% Acetic Acid / % of Total A1PI Eluted by Fraction (Based on Absorbance at 280 nm), Flowthrough: VIFLVR point mutations, 1 mg A1PI
Description: (§1) Confirmatory binding assays were performed in a column chromatographic format on a microbore HPLC using individual peptide sequences synthesized directly onto the Toyopearl 650 M Chelate resin which had been modified with Totda followed by an alanine residue (A-Totda-Toyopearl), at a final substitution density of 0.1 mmole/g resin. The resin was packed into 0.4×5 cm columns (Thomson, Springfield, Va.) and tested on the Michrom HPLC system (Michrom BioResources, Auburn, Calif.). The elution program for all trials utilized the following method. The column was pre-equilibrated with equilibration buffer (as above). 1 ml of sample was injected and allowed sufficient time to flowthrough the column using equilibration buffer. The column was then washed with step elutions of 1M NaCl and 3M NaCl in equilibration buffer. The column was exposed to equilibration buffer with 0.1M NaCl. Any remaining protein was eluted with elution buffer (2% by volume glacial acetic acid in water).
(§2) A Gilson FC204 fraction collector at the HPLC outlet collected individual eluates for further analysis. Fractions collected from the 2% acetic acid eluates were neutralized with 2M Tris, pH 10.5 to bring the pH to neutrality. The protein samples were reconstituted in equilibration buffer unless otherwise stated. The samples were analyzed by the integration of the absorbance at 280 nm or by immunonephelometry. The specific method of determination is presented for each figure.
Tables 2 and 3 present the elution profiles for 19 sequences based on the injection of 1 mg AlPI in equilibration buffer at 4° C. and 20° C., respectively. The columns were run at a constant flow rate of865 μl/min (413 cm/hr) or 523 μl/min (250 cm/hr). No dependence of the elution profile with flow rate was found. The Percent AlPI Eluted by Fraction represents the amount eluted in the flowthrough, 1M NaCl wash, and 2% acetic acid fractions relative to the total AlPI eluted. The percentages are based on either the integration of the peak areas at […]

A1PI [3] = target: T1, A1PI; assay: A1PI purification from 5 mg hSA + 1 mg A1PI on peptide column, A1PI mass balance; type: binding; conditions: A1PI, 5 mg hSA + 1 mg A1PI; for Percent Eluted by Fraction, 1M NaCl / Percent Eluted by Fraction, 2% Ac. Acid / Percent Eluted by Fraction, 3M NaCl / Percent Eluted by Fraction, Flow: relative to total eluted
Description: as §1, §2
Columns were assayed with a mixture of 5 mg human serum albumin (hSA)+1 mg AlPI at 4° C. (Table 4, Seq. ID 1-11, 15, 17) and 20° C. (Table 5, Seq. ID 1-10, 13, 15, 17). The chromatography method was modified to provide for a 10 minute residence time of sample in the column by decreasing the flow to 17 μl/min (10 cm/hr) upon injection. Following the incubation, the flow was set at 865 μl/min (413 cm/hr) for the step elutions of 1M NaCl, 3M NaCl, and 2% acetic acid. The mass balances presented are based upon immunonephelometry. The Percent Eluted value is protein-specific and based on the amount of the protein eluted in a […]

[4] = 1 mg A1PI in equilibration buffer, 4° C.
[5] = 1 mg A1PI in equilibration buffer, 20° C.
[6] = 20° C., * Below detection limit

T1 sequence (P01009 25-418): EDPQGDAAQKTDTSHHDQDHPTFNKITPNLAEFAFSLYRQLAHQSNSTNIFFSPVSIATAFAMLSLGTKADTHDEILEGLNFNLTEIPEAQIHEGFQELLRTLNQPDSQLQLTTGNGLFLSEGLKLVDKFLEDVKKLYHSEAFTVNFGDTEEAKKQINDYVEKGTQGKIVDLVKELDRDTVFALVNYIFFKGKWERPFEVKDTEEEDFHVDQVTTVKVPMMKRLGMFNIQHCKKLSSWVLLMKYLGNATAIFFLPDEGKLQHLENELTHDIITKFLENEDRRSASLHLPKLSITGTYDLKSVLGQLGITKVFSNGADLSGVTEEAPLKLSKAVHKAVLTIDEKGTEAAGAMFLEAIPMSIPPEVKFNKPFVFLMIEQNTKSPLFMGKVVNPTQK

| Substance | Mass A1PI per Eluate Fraction, 1M NaCl (A1PI [1]) | Mass A1PI per Eluate Fraction, 2% Acetic Acid (A1PI [1]) | Mass A1PI per Eluate Fraction, Flowthrough (A1PI [1]) | Percent Eluted by Fraction, 1M NaCl (A1PI [1]) | Percent Eluted by Fraction, 2% Acetic Acid (A1PI [1]) | Percent Eluted by Fraction, Flowthrough (A1PI [1]) | % of Total A1PI Eluted by Fraction (Based on Absorbance at 280 nm), 1M NaCl (A1PI [2]; 4° C.) | % of Total A1PI Eluted by Fraction (Based on Absorbance at 280 nm), 2% Acetic Acid (A1PI [2]; 4° C.) | % of Total A1PI Eluted by Fraction (Based on Absorbance at 280 nm), Flowthrough (A1PI [2]; 4° C.) | % of Total A1PI Eluted by Fraction (Based on Absorbance at 280 nm), 1M NaCl (A1PI [2]; 20° C.) | % of Total A1PI Eluted by Fraction (Based on Absorbance at 280 nm), 2% Acetic Acid (A1PI [2]; 20° C.) | % of Total A1PI Eluted by Fraction (Based on Absorbance at 280 nm), Flowthrough (A1PI [2]; 20° C.) | also measured |
| --- | --- | --- | --- | --- | --- | --- | --- | --- | --- | --- | --- | --- | --- |
| A I F L V R: point mutation of VIFLVR, position 1 (AIFLVR) | 0.07 mg | 0.59 mg | 0.33 mg | 7% | 60% | 33% | 4% | 96% | 0% | 3% | 92% | 5% |  |
| H I F L V R: point mutation of VIFLVR, position 1 (HIFLVR) | 0.08 mg | 0.54 mg | 0.16 mg | 10% | 69% | 21% | 3% | 97% | 0% | 7% | 93% | 0% |  |
| IWRKYS |  |  |  |  |  |  |  |  |  |  |  |  | Percent A1PI Eluted by Fraction Based on Absorbance at 280 nm, 1M NaCl (A1PI [2]; [4]): 94%; Percent A1PI Eluted by Fraction Based on Absorbance at 280 nm, 2% Acetic Acid (A1PI [2]; [4]): 6%; Percent A1PI Eluted by Fraction Based on Absorbance at 280 nm, Flowthrough (A1PI [2]; [4]): 0%; Percent A1PI Eluted by Fraction, 1M NaCl (A1PI [2]; [5]): 81%; Percent A1PI Eluted by Fraction, 2% Acetic Acid (A1PI [2]; [5]): 19%; Percent A1PI Eluted by Fraction, Flowthrough (A1PI [2]; [5]): 0%; Mass Protein per Eluate Fraction, 1M NaCl (A1PI [3]; 4° C., * Below detection limit): 0.68 mg; Mass Protein per Eluate Fraction, Flow (A1PI [3]; 4° C., * Below detection limit): 0.03 mg; Percent Eluted by Fraction, 1M NaCl (A1PI [3]; 4° C.): 96%; Percent Eluted by Fraction, 2% Ac. Acid (A1PI [3]; 4° C.): 0%; Percent Eluted by Fraction, 3M NaCl (A1PI [3]; 4° C.): 0%; Percent Eluted by Fraction, Flow (A1PI [3]; 4° C.): 4%; Mass Protein per Eluate Fraction, 1M NaCl (A1PI [3]; [6]): 0.58 mg; Mass Protein per Eluate Fraction, 2% Ac. Acid (A1PI [3]; [6]): 0.11 mg; Mass Protein per Eluate Fraction, 3M NaCl (A1PI [3]; [6]): 0.00 mg; Percent Eluted by Fraction, 1M NaCl (A1PI [3]; 20° C.): 83%; Percent Eluted by Fraction, 2% Ac. Acid (A1PI [3]; 20° C.): 17%; Percent Eluted by Fraction, 3M NaCl (A1PI [3]; 20° C.): 0%; Percent Eluted by Fraction, Flow (A1PI [3]; 20° C.): 0% |
| K I F L V R: point mutation of VIFLVR, position 1 (KIFLVR) | 0.03 mg | 0.51 mg | 0.32 mg | 3% | 59% | 38% | 3% | 97% | 0% | 0% | 100% | 0% |  |
